Measured values: US20240141072A1 (published 2024)

T1: biotinylated human DLL3 protein expressed as a human IgG1 fusion protein (human, UniProt Q9NYJ7 27-492, limits assumed, biotinylated)
T1 sequence: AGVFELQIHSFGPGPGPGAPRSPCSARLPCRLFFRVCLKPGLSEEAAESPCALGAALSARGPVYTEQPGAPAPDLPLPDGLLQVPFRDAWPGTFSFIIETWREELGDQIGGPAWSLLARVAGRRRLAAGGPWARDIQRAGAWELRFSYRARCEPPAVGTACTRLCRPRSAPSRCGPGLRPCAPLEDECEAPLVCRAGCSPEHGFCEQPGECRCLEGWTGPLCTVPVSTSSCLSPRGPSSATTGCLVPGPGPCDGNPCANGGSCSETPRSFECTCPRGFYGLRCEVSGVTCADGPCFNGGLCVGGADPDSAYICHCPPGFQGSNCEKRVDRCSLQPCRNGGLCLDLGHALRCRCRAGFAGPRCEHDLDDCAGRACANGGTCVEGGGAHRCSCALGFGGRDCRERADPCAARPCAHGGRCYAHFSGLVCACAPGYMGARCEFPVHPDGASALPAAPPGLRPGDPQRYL


Each binder was assayed against T1, biotinylated human DLL3 protein … (assay: Octet BLI, single 50 nM).
Protocol: Using the conditioned medium with known concentrations of the anti-DLL3 trispecific proteins, the binding affinities of the anti-DLL3 trispecific proteins toward human DLL3 protein were measured using a method where biotinylated version of human DLL3 protein were expressed as a human IgG1 fusion protein, and the binding affinity measurement was carried out in an Octet instrument with streptavidin tips.

Row | Kd [nM] | Binder
1 | 7.1 | 1C07 anti-DLL3 trispecific protein (other, not shown: linker 1808, anti-albumin sdAb, linker 1808, anti-CD3 fragment, His6 1819) EVQLVESGGGLVQPGGSLTLSCVASGSTSSINAMAWYRRAPGKQRELVAGISSDGSKVYADSVKGRFTISRDNAKNSVYLQMNSLRAEDTAVYYCYYFRTVSGSSMRYWGQGTLVTVSS
2 | 5.6 | 1A06 anti-DLL3 trispecific protein (other, not shown: linker 1808, anti-albumin sdAb, linker 1808, anti-CD3 fragment, His6 1819) EVQLVESGGGLVQPGGSLTLSCVASGSTSSINAMGWYRRAPGKQRELAAGISSDGSSVYADSVKGRFTISRDNAKNSVYLQMNSLRAEDTAVYYCYYFRTVSGSSKRYWGQGTLVTVSS
3 | 8.7 | 1B03 anti-DLL3 trispecific protein (other, not shown: linker 1808, anti-albumin sdAb, linker 1808, anti-CD3 fragment, His6 1819) EVQLVESGGGLVQPGGSLTLSCVASGKTSSINAMAWYRRAPGKQRELVAGISSDGSKVYTDSVKGRFTISRDNAKNSVYLQMNSLRAEDTAVYYCYYFRTVSGSSARYWGQGTLVTVSS
4 | 5.3 | 1C05 anti-DLL3 trispecific protein (other, not shown: linker 1808, anti-albumin sdAb, linker 1808, anti-CD3 fragment, His6 1819) EVQLVESGGGLVQPGGSLTLSCVASGSTSSINAMAWYRRAPGKQRELVAGISSDGSKVYADSVKGRFTISRDNAKNSVYLQMNSLRAEDTAVYYCYYFRTVSGSHMRYWGQGTLVTVSS
5 | 11 | 1B02 anti-DLL3 trispecific protein (other, not shown: linker 1808, anti-albumin sdAb, linker 1808, anti-CD3 fragment, His6 1819) EVQLVESGGGLVQPGGSLTLSCVASGSTSSINAMGWYRRAPGKQRELVAGISSDGSKIYADSVKGRFTISRDNAKNSVYLQMNSLRAEDTAVYYCYYFRTVSGSSMRYWGQGTLVTVSS
6 | 25 | 1C08 anti-DLL3 trispecific protein (other, not shown: linker 1808, anti-albumin sdAb, linker 1808, anti-CD3 fragment, His6 1819) EVQLVESGGGLVQPGGSLTLSCVASGSTSRINAMGWYRRAPGKQRELPAGISSDGSKVYAVSVKGRFTISRDNAKNSVYLQMNSLRAEDTAVYYCYYFRTVSGSPMRYWGQGTLVTVSS
7 | 5.7 | 1B011 anti-DLL3 trispecific protein (other, not shown: linker 1808, anti-albumin sdAb, linker 1808, anti-CD3 fragment, His6 1819) EVQLVESGGGLVQPGGSLTLSCVASGSTSRINAMGWYRRAPGKQRELVAGISSDGSKVYADSVKGRFTISRDNAKNSVYLQMNSLRAEDTAVYYCYYFRTVYGSSMRYWGQGTLVTVSS
8 | 7 | 1A01 anti-DLL3 trispecific protein (other, not shown: linker 1808, anti-albumin sdAb, linker 1808, anti-CD3 fragment, His6 1819) EVQLVESGGGLVQPGGSLTLSCVASGFTSSINAMGWYRRAPGKQRELVAGISSDGSFVYADSVKGRFTISRDNAKNSVYLQMNSLRAEDTAVYYCYYFRHVSGSSMRYWGQGTLVTVSS
9 | 12 | 1B08 anti-DLL3 trispecific protein (other, not shown: linker 1808, anti-albumin sdAb, linker 1808, anti-CD3 fragment, His6 1819) EVQLVESGGGLVQPGGSLTLSCVASGTTSSINAMGWYRRAPGKQRELVAGISSDGSKVYVDSVKGRFTISRDNAKNSVYLQMNSLRAEDTAVYYCYYFRFVSGSSMRYWGQGTLVTVSS
10 | 8.6 | 1A07 anti-DLL3 trispecific protein (other, not shown: linker 1808, anti-albumin sdAb, linker 1808, anti-CD3 fragment, His6 1819) EVQLVESGGGLVQPGGSLTLSCVASGSISSINAMGWYRRAPGKQRELVAGISSDGSKVYADSVKGRFTISRDNAKNSVYLQMNSLRAEDTAVYYCYYFRMVSGSSMRYWGQGTLVTVSS
11 | 8.5 | 1C012 anti-DLL3 trispecific protein (other, not shown: linker 1808, anti-albumin sdAb, linker 1808, anti-CD3 fragment, His6 1819) EVQLVESGGGLVQPGGSLTLSCVASGITSSINAMGWYRRAPGKQRELVAGISSDGSKVYAGSVKGRFTISRDNAKNSVYLQMNSLRAEDTAVYYCYYFRTVRGSSMRYWGQGTLVTVSS
12 | 7.8 | 1A04 anti-DLL3 trispecific protein (other, not shown: linker 1808, anti-albumin sdAb, linker 1808, anti-CD3 fragment, His6 1819) EVQLVESGGGLVQPGGSLTLSCVASGSTSSINAMGWYRRAPGKQRELVAGISSDGSKVYEDSVKGRFTISRDNAKNSVYLQMNSLRAEDTAVYYCYYFRTVSGSSMRYWGQGTLVTVSS
13 | 6.2 | 1C02 anti-DLL3 trispecific protein (other, not shown: linker 1808, anti-albumin sdAb, linker 1808, anti-CD3 fragment, His6 1819) EVQLVESGGGLVQPGGSLTLSCVASGSTSSINAMAWYRRAPGKQRELVAGISSDGSKVYSDSVKGRFTISRDNAKNSVYLQMNSLRAEDTAVYYCYYFRTVSGSSMRSWGQGTLVTVSS
14 | 4.3 | 1C01 anti-DLL3 trispecific protein (other, not shown: linker 1808, anti-albumin sdAb, linker 1808, anti-CD3 fragment, His6 1819) EVQLVESGGGLVQPGGSLTLSCVASGSTSSINAMGWYRRAPGKQRELVAGISSDGSKVYRDSVKGRFTISRDNAKNSVYLQMNSLRAEDTAVYYCYYFRTVSGSSMGYWGQGTLVTVSS
15 | 14 | 1D02 anti-DLL3 trispecific protein (other, not shown: linker 1808, anti-albumin sdAb, linker 1808, anti-CD3 fragment, His6 1819) EVQLVESGGGLVQPGGSLTLSCVASGSTSSINAMAWYRRAPGKQRELVAGISSNGSKVYADSVKGRFTISRDNAKNSVYLQMNSLRAEDTAVYYCYYFRQVSGSSMRYWGQGTLVTVSS
16 | 4 | 1A05 anti-DLL3 trispecific protein (other, not shown: linker 1808, anti-albumin sdAb, linker 1808, anti-CD3 fragment, His6 1819) EVQLVESGGGLVQPGGSLTLSCVASGSPSSINAMGWYRRAPGKQRELSAGISSDGSKVYADSVKGRFTISRDNAKNSVYLQMNSLRAEDTAVYYCYYFRTVRGSSMSYWGQGTLVTVSS

Row | Kd [nM] | Binder
17 | 5.4 | 1B09 anti-DLL3 trispecific protein (other, not shown: linker 1808, anti-albumin sdAb, linker 1808, anti-CD3 fragment, His6 1819) EVQLVESGGGLVQPGGSLTLSCVASGSTSSINAMAWYRRAPGKQRELVAGISSDGSKVYVDSVKGRFTISRDNAKNSVYLQMNSLRAEDTAVYYCYYFRTVSGSSMRYWGQGTLVTVSS
18 | 5.2 | 1B01 anti-DLL3 trispecific protein (other, not shown: linker 1808, anti-albumin sdAb, linker 1808, anti-CD3 fragment, His6 1819) EVQLVESGGGLVQPGGSLTLSCVASGSTSIINAMGWYRRAPGKQRELAAGISSDGSKVIADSVKGRFTISRDNAKNSVYLQMNSLRAEDTAVYYCYYFRRVSGSSMRYWGQGTLVTVSS
19 | 6.5 | 1A010 anti-DLL3 trispecific protein (other, not shown: linker 1808, anti-albumin sdAb, linker 1808, anti-CD3 fragment, His6 1819) EVQLVESGGGLVQPGGSLTLSCVASGSTSSINAYGWYRRAPGKQRELVAGISSDGSKVYADSVKGRFTISRDNAKNSVYLQMNSLRAEDTAVYYCYYFRTVYGSSMRYWGQGTLVTVSS
20 | 8.9 | 1B07 anti-DLL3 trispecific protein (other, not shown: linker 1808, anti-albumin sdAb, linker 1808, anti-CD3 fragment, His6 1819) EVQLVESGGGLVQPGGSLTLSCVASGSGSSINAMGWYRRAPGKQRELVAGISSDGSKVYSDSVKGRFTISRDNAKNSVYLQMNSLRAEDTAVYYCYYFRHVSGSSMRYWGQGTLVTVSS
21 | 5.8 | 1D01 anti-DLL3 trispecific protein (other, not shown: linker 1808, anti-albumin sdAb, linker 1808, anti-CD3 fragment, His6 1819) EVQLVESGGGLVQPGGSLTLSCVASGSTSDINAMGWYRRAPGKQRELVAGISSDKSKVYADSVKGRFTISRDNAKNSVYLQMNSLRAEDTAVYYCYYFRTVRGSSMRYWGQGTLVTVSS
22 | 6.8 | 1B010 anti-DLL3 trispecific protein (other, not shown: linker 1808, anti-albumin sdAb, linker 1808, anti-CD3 fragment, His6 1819) EVQLVESGGGLVQPGGSLTLSCVASGSTSRINAMGWYRRAPGKQRELVAGISSDGSKVYADSVKGRFTISRDNAKNSVYLQMNSLRAEDTAVYYCYYFRTKSGSSMRYWGQGTLVTVSS
23 | 7.6 | 1C011 anti-DLL3 trispecific protein (other, not shown: linker 1808, anti-albumin sdAb, linker 1808, anti-CD3 fragment, His6 1819) EVQLVESGGGLVQPGGSLTLSCVASGTTSSINAMGWYRRAPGKQRELVAGISSDGSKVYEDSVKGRFTISRDNAKNSVYLQMNSLRAEDTAVYYCYYFRTVSGSSMRYWGQGTLVTVSS
24 | 8.1 | 1C04 anti-DLL3 trispecific protein (other, not shown: linker 1808, anti-albumin sdAb, linker 1808, anti-CD3 fragment, His6 1819) EVQLVESGGGLVQPGGSLTLSCVASGNTSSINAMAWYRRAPGKQRELVAGISSDGSKVYADSVKGRFTISRDNAKNSVYLQMNSLRAEDTAVYYCYYFRTVSGSSMRYWGQGTLVTVSS
25 | 6.6 | 1A09 anti-DLL3 trispecific protein (other, not shown: linker 1808, anti-albumin sdAb, linker 1808, anti-CD3 fragment, His6 1819) EVQLVESGGGLVQPGGSLTLSCVASGSTSSINAMAWYRRAPGKQRELVAGISSDGSKLYADSVKGRFTISRDNAKNSVYLQMNSLRAEDTAVYYCYYFRTVQGSSMRYWGQGTLVTVSS
26 | 2.5 | 1C010 anti-DLL3 trispecific protein (other, not shown: linker 1808, anti-albumin sdAb, linker 1808, anti-CD3 fragment, His6 1819) EVQLVESGGGLVQPGGSLTLSCVASGSTSRINAMGWYRRAPGKQRELVAGVSSDGSKVYADSVKGRFTISRDNAKNSVYLQMNSLRAEDTAVYYCYYFRTVSGSSMSYWGQGTLVTVSS
27 | 8 | 1B05 anti-DLL3 trispecific protein (other, not shown: linker 1808, anti-albumin sdAb, linker 1808, anti-CD3 fragment, His6 1819) EVQLVESGGGLVQPGGSLTLSCVASGSTSSINAMAWYRRAPGKQRELVAGISSDGSKVYADSVKGRFTISRDNAKNSVYLQMNSLRAEDTAVYYCYYYRTVSGSSMRYWGQGTLVTVSS
28 | 11 | 1B04 anti-DLL3 trispecific protein (other, not shown: linker 1808, anti-albumin sdAb, linker 1808, anti-CD3 fragment, His6 1819) EVQLVESGGGLVQPGGSLTLSCVASGTTSSINAMGWYRRAPGKQRELVAGISSDGSLVYADSVKGRFTISRDNAKNSVYLQMNSLRAEDTAVYYCYYFRIVRGSSMRYWGQGTLVTVSS
29 | 4.9 | 1A012 anti-DLL3 trispecific protein (other, not shown: linker 1808, anti-albumin sdAb, linker 1808, anti-CD3 fragment, His6 1819) EVQLVESGGGLVQPGGSLTLSCVASGSTSSINAMAWYRRAPGKQRELVAGISSDGSKVYSDSVKGRFTISRDNAKNSVYLQMNSLRAEDTAVYYCYYFRTVLGSSMRYWGQGTLVTVSS
30 | 8.3 | 1C06 anti-DLL3 trispecific protein (other, not shown: linker 1808, anti-albumin sdAb, linker 1808, anti-CD3 fragment, His6 1819) EVQLVESGGGLVQPGGSLTLSCVASGSTSIINAMGWYRRAPGKQRELVAGISSDGSKVYEDSVKGRFTISRDNAKNSVYLQMNSLRAEDTAVYYCYYFRAVSGSSMRYWGQGTLVTVSS
31 | 6.3 | 1A03 anti-DLL3 trispecific protein (other, not shown: linker 1808, anti-albumin sdAb, linker 1808, anti-CD3 fragment, His6 1819) EVQLVESGGGLVQPGGSLTLSCVASGSTSSINAMAWYRRAPGKQRELVAGISSDGSKVYADSVKGRFTISRDNAKNSVYLQMNSLRAEDTAVYYCYYFRTVSGSSSRYWGQGTLVTVSS
